We go through two substances from US20240254192A1.

The target in experiment [1] is tBCMA [BCMA extracellular domain - PDL1 hinge & TM plus Trop2 cytoplasmic domain]. Nature of the experiment: cell-based or functional assay.
For experiment [2], the target named is CD30 expressed on primary T cells transduced with BCL6 and BCL2L1 (Homo sapiens (Human)) (UniProt P28908). Nature of the experiment: cell-based or functional assay.
Sequence of CD30 expressed on primary T cells transduced with BCL6 and BCL2L1 (Homo sapiens (Human)) (P28908 19-595 limits assumed): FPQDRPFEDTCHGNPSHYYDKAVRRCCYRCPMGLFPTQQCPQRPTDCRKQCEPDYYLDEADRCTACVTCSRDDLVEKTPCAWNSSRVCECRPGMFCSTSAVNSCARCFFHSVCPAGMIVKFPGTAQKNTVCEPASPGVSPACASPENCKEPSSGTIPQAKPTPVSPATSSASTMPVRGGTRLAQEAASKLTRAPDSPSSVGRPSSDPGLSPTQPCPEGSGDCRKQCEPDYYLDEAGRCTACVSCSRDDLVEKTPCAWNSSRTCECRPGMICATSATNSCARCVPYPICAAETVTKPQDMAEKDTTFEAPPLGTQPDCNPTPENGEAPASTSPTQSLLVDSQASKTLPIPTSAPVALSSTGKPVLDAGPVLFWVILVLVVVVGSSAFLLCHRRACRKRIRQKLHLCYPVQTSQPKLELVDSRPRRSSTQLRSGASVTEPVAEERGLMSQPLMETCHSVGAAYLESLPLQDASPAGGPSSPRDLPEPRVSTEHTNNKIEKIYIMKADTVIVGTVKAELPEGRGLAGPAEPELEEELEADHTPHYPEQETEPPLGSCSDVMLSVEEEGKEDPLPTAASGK

Sequence of tBCMA [BCMA extracellular domain - PDL1 hinge & TM plus Trop2 cytoplasmic domain] (chain, as listed by the source limits assumed, form in doubt): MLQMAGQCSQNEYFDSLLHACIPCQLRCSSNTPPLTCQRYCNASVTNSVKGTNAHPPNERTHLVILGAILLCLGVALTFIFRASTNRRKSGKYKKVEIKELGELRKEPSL

As to belantamab mafodotin (antibody), in experiment [1], the percent change in live cell number (day 2) is below 80%. As to brentuximab vedotin (antibody), in experiment [2], the percent change in live cell number is below 95%.
